Publication PMC4284226

Target: TRPM8-mTurquoise2 (human) (UniProt Q7Z2W7)
Assay: FRET or BRET

UniProt Q7Z2W7, sequence (Q7Z2W7 2-1104): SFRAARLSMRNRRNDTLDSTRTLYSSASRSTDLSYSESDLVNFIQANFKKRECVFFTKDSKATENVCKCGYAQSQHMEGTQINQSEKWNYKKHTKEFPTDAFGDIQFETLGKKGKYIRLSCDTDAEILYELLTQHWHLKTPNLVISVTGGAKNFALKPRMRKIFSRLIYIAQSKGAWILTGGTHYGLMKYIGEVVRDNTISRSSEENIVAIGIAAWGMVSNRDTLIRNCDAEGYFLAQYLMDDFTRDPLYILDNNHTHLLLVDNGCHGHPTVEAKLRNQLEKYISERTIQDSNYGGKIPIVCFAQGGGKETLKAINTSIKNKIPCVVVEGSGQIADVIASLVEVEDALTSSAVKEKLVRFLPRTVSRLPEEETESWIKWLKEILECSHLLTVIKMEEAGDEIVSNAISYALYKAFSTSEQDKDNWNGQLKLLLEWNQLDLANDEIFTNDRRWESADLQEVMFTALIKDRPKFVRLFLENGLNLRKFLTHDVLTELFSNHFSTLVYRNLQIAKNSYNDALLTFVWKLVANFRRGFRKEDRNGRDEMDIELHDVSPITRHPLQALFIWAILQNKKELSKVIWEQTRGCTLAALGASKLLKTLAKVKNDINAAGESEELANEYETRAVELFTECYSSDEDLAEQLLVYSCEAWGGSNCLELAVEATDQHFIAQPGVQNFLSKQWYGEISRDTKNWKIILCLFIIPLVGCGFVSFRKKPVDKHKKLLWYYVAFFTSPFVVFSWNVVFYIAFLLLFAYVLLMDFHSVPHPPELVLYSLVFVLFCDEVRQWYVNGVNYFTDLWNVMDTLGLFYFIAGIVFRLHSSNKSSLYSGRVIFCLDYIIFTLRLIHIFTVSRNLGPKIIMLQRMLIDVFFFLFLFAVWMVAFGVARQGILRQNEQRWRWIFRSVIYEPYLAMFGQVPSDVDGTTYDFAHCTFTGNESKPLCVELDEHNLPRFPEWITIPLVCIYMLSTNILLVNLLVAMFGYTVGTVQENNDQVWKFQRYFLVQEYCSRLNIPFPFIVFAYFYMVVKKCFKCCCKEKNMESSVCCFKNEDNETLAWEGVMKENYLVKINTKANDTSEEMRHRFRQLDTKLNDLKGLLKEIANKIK

- E FRET: < 1%
Substance: free SYFP2 protein
